Source: publication PMC10918085, “Cryo-EM structures reveal how phosphate release from Arp3 weakens actin filament branches formed by Arp2/3 complex” (Nature Communications, 2024)

Legend:
Conditions in all cases: both partners purified
[1] = molecular target: T1, Arp2 of S. pombe Arp2/3 complex (S. pombe, UniProt Q9UUJ1 1-390); experiment: cryo-EM structure; ADP state: branch junctions of capped rabbit actin filaments with GCN4-VCA-activated S. pombe Arp2/3 complex, aged ~90 min; ADP on actin and Arp3, ATP on Arp2; 2.7 Å
T1 construct: Arp2 subunit of S. pombe Arp2/3 complex; Seen within the whole complex in the branch junction
T1 sequence (Q9UUJ1 whole entry, one chain of several): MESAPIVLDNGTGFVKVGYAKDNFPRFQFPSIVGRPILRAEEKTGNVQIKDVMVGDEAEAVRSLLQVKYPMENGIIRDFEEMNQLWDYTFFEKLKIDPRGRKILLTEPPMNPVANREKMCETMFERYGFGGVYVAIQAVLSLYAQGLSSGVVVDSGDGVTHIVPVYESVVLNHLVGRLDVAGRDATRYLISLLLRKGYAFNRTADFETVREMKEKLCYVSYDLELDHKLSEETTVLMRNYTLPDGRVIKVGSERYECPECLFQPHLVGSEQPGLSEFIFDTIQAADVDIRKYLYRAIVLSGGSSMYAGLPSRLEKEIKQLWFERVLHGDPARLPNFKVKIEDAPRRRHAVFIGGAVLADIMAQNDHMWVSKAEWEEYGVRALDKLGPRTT

[2] = molecular target: T2, ARPC1 of S. pombe Arp2/3 complex (S. pombe, UniProt P78774 1-377); experiment: cryo-EM structure; ADP-BeFx state: branch junctions prepared as for the ADP state, with 2 mM BeFx (2 mM BeSO4 and 10 mM NaF) added during daughter filament formation; ADP-BeFx on Arp3, ATP on Arp2; 3.2 Å
T2 construct: ARPC1 subunit of S. pombe Arp2/3 complex; Seen within the whole complex in the branch junction
T2 sequence: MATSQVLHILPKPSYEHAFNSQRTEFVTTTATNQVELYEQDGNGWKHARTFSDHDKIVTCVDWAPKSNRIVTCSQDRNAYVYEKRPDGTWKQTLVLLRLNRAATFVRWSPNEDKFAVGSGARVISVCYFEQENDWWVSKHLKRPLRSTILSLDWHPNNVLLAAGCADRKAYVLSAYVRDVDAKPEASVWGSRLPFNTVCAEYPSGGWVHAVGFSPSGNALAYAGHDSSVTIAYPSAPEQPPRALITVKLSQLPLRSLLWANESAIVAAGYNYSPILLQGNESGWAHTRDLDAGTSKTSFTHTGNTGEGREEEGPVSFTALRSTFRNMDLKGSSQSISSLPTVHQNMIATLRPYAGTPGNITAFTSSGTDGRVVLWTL

[3] = molecular target: T1, Arp2 of S. pombe Arp2/3 complex; experiment: as above

B1: ARPC3 of S. pombe Arp2/3 complex (natural protein)
chain: MPAYHSSFLSLTDVPTTGNIAMLPLKTKFRGPAYPADESQMDIIDECIGLFRANCFFRNFEIKGPADRTLIYGTLFISECLGRVNGLNYRDAERQLNSLALENFSIPGSAGFPLNALYAPPLSPQDAEIMRTYLTQFRQELAYRLLSHVYATEKDHPSKWWTCFSKRRFMNKAL
notes: ARPC3 subunit of S. pombe Arp2/3 complex; Seen within the whole complex in the branch junction
binding result [1]: binds

B2: ARPC2 of S. pombe Arp2/3 complex (natural protein)
chain: MLSLDYNNIFIYELLTERFSSENPSSIDQVVTDFDGVTFHISTPEEKTKILISLSMKCYPELVNYGTLDLLKQIYGAYVHEPEMGYNFSILIDLQQLPATDEEKEQLAMSISMLKRNVLAAPFHRAFTKQAELADLARKDPENAPMLDKQATSQELMAIHYRDEETIVLWPEHDRVTVVFSTKFREETDRIFGKVFLQEFVDARRRPAIQTAPQVLFSYRDPPLEIRDIQGIQKGDDFGFVTFVLFERHFTPQNREDCISHIQVFRNTLHFHIKASKAYMHQRMRKRVADFQKVLNRAKPDVELERKTATGRSFVRA
notes: ARPC2 subunit of S. pombe Arp2/3 complex; Seen within the whole complex in the branch junction
binding result [2]: binds
binding result [3]: binds
